Experimental findings from PMC3700536 (Nature communications, 2013) are described below.

The Kd is the equilibrium constant for the complex coming apart. Higher therefore signals a looser complex.

For assay [1], the target named is GST-Nck1 SH3-3 (UniProt P16333). Nature of the assay: SPR. (Surface plasmon resonance follows binding to a sensor surface in real time, without labels.)
For assay [2], the target named is T1, purified β2-chimaerin (UniProt P52757-1 1-468).
T1 sequence: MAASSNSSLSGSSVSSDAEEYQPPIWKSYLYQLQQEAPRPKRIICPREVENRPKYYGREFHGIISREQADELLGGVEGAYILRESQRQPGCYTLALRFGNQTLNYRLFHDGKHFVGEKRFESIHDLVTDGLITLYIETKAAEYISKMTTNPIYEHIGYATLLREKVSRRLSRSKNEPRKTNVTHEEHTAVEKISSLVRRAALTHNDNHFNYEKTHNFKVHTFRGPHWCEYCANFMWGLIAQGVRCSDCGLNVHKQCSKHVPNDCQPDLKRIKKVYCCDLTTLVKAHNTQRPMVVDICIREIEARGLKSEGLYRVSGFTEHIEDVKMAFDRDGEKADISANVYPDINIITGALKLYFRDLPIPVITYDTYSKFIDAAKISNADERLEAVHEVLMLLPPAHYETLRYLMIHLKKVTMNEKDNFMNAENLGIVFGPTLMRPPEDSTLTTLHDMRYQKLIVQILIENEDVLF
Nature of the assay: co-sedimentation.

For the molecule “WT-β2-chim peptide (β2-chimaerin amino acids 34–59)”, in assay [1], the dissociation constant Kd amounted to 18 µM.

B1: Nck1 SH3-3 (purified third SH3 domain of Nck1) (domain or fragment)
chain: QVLHVVQALYPFSSSNDEELNFEKGDVMDVIEKPENDPEWWKCRKINGMVGLVPKNYVTVMQN
In the case of B1, the affinity in assay [2], expressed as Kd, was 1.7 µM.
